Laboratory results published in the supplement of paper PMC12042874.
± gives the uncertainty stated by the source.

Experiment: amyloid nucleation score (Sup35N fusion, yeast selection) (log enrichment); library NNK3; higher = more nucleation; inactive = no reads after selection
How it was run: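 Libraries of peptides of 20 random codons fused to Sup35N were expressed in psi-negative yeast and induced 24 hours with 100 μM copper sulfate. Selection was 7 days at 30°C on medium lacking adenine and uracil, and plasmid inserts were Illumina-sequenced before and after selection. Nucleation score is the DiMSum log enrichment of output over input reads, centred on the mode score of non-aggregating sequences, and sequences with under 100 input reads were left out.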

Row | Substance | amyloid nucleation score
1 | AAEPEVDNSYTAGDSGTRGT | inactive
2 | AALTPNPGVD | inactive
3 | AANPFFTIYHLVRSYNVCRW | inactive
4 | AAVSGDVTM | inactive
5 | ACIFNLGGVHRCICCVLFNI | inactive
6 | ACLSFVYALYPLCLRLIS | inactive
7 | ADFDDHDYLVMCDWWINMHS | inactive
8 | ADIDLVGVDCPWCGGLESFP | -0.342 ± 1.2
9 | ADKRSMMWKFMFSRFCGRVT | inactive
10 | ADRMDGDSTGFYSTNLRGYS | inactive
11 | ADVNTL | inactive
12 | AESIR | inactive
13 | AEWGFVGGIYWYLRKVPRSH | inactive
14 | AFFTFGAPCIQDNESGDRGG | inactive
15 | AFIRFTVFNIGVKKYSCL | 1.55 ± 0.065
16 | AFKDNNDCLEHCCRRVTDLV | inactive
17 | AFLPMCGLDFKWRYV | -0.22 ± 1.4
18 | AFPCFIVY | inactive
19 | AFSKRSSWNNHFICVNDVVQ | inactive
20 | AGGSVYKIVEFSCLLFNQKY | inactive
21 | AGPVF | inactive
22 | AGQFPREQ | inactive
23 | AGVDWQILV | inactive

Row | Substance | amyloid nucleation score
24 | AHFFVCCALSDRCRLRDVLQ | inactive
25 | AHGTMGGNYGRNVQLDDRLN | inactive
26 | AHLQVYFSSNVC | inactive
27 | AHVALR | inactive
28 | AIDLKLAKSEWGWSALGWFL | inactive
29 | AIEQSLDWF | inactive
30 | AILCTIVCNASWAEEQSA | 1.09 ± 0.17
31 | AIMLVSLC | inactive
32 | AIRPKSGAWSHLCYASIG | inactive
33 | AISYYYEHARLGWYGVELRP | inactive
34 | AIYKGSWEPFGIDA | inactive
35 | AKFSGVLKAYAVREATYCLG | inactive
36 | AKHGLVDAQRALGISYQKNK | 0.967 ± 0.11
37 | ALFSKKFI | 1.83 ± 0.059
38 | ALMLDIFGRCTLRFRISGHG | inactive
39 | ALNDLLAYSLSSKSFSYNWI | inactive
40 | ALQYGNHRGCSYGCMITFVR | inactive
41 | ALVLNLDRVWVSLTDGPWSD | inactive
42 | ALVVSTWYSPGDMDLTPLHW | inactive
43 | ALWWKRGVNMRNPSETRLAM | inactive
44 | AMEEDIYLTNDYTIIM | 0.45 ± 0.39
45 | AMGLACGLDGSAVFGCMLTT | inactive
46 | AMVKEFWVDSRHFIDRYSKC | inactive

Row | Substance | amyloid nucleation score
47 | ANAFTGIRCVQVRRRCSLDM | inactive
48 | ANCCYPDLSCYVLYCGSSCL | 2.41 ± 0.076
49 | ANGLLSFSGRADGLQTNSGC | inactive
50 | ANGRN | inactive
51 | ANHDVLADVCRLSRRGVLRR | inactive
52 | ANHNLYRDDDREYFFMLCY | inactive
53 | ANLRSLTR | inactive
54 | ANPGG | -1.05 ± 2.5
55 | ANSNRRECQHNS | 1.06 ± 0.16
56 | ANSNVGSLF | inactive
57 | ANVARFMYSFVKQALSLWVR | inactive
58 | APFCVRGSWELRQVFRM | -0.13 ± 0.77
59 | AQILYYLYYT | inactive
60 | ARCECESSTRVSSLVYLSRE | inactive
61 | ARHSCA | inactive
62 | ARICVRAFKETCDYKLGCST | 0.052 ± 0.66
63 | ARIDCGSVELKECDLRPDYG | inactive
64 | ARWNAI | inactive
65 | ARWTMRAMLDWSIALSDHWV | inactive
66 | ASCAWNGWTLIFLFYRCYFQ | inactive
67 | ASCPLSKKWMELGKCAGPTH | inactive
68 | ASDTVTCFAYAVKGLRRASG | inactive
69 | ASILEFPRSTKSTSLGRSGR | inactive

Row | Substance | amyloid nucleation score
70 | ASLRWVLRLCRNLHTSSMET | -0.824 ± 1.5
71 | ASLTGNFYTGWRFLALATMC | inactive
72 | ASMLALCVLMHRLEPIRSFN | 0.64 ± 0.2
73 | ASRSMTGSLCLFAFMV | inactive
74 | ASTEKGGPNDGTCWYPYCTA | inactive
75 | ASTMDW | inactive
76 | ATCWDEYDPRDPLA | inactive
77 | ATIIPICSHLIDHSVSLDQG | inactive
78 | AVCFRVLCFKLLTT | inactive
79 | AVCYRLWFKM | inactive
80 | AVISKDCDSYAIYHHVFHST | inactive
81 | AVLCELVQDMFSLGVYVCHE | 0.531 ± 0.32
82 | AVLCVCIHRLPFYFPPLLKM | inactive
83 | AVLWIVSGGTYESVDLNYWC | 0.837 ± 0.13
84 | AVMDGRNMSYSMYIRCCMWL | 2.7 ± 0.074
85 | AVMWYIPRDG | inactive
86 | AVMYSCQYRDKWVEVAMVTS | inactive
87 | AVNFCMLWGVYASSQKNLGF | 0.585 ± 0.32
88 | AVSRDCELYKVEYYLVQ | inactive
89 | AVTDTNLLLFDVGYESLVHS | inactive
90 | AVTFTHRFSRISPCHRRRWK | 1.16 ± 0.1
91 | AVWTCIGWDERTKMLYKFIR | inactive
92 | AWELEKTTYRRGRAIVVHTP | inactive

Row | Substance | amyloid nucleation score
93 | AWFVEKLLCDLHSPSAVGAG | -0.565 ± 1.5
94 | AWHCLDYYRSGSVIDRRVGM | inactive
95 | AWKTFFVIYSS | 0.406 ± 0.19
96 | AWNLS | inactive
97 | AWSLVGMHAVNNFHLKQEFL | inactive
98 | AWTIRGQA | inactive
99 | AWYKFVGRVMRDPYMEARLA | inactive
100 | AYFIPYNTWFYKKGMARQFF | inactive
101 | AYMYCVMTGSWVVKIRPGTR | inactive
102 | AYSSVLINLSEYTLGIAVPM | 0.062 ± 0.75
103 | CAVALLNHRG | inactive
104 | CAVYCNLNDVIGVFTILQRS | inactive
105 | CAYRLNVGSVRFGKMHPRRS | inactive
106 | CAYVENSCGTILVCALYCGS | inactive
107 | CCCTNDMWTTGPNCS | -0.432 ± 0.76
108 | CCFTLGAVSNCSLRGNSQTL | -1.2 ± 1.9
109 | CCMYMISCRDN | inactive
110 | CCQLGESTENGLFSDDWRCE | inactive
111 | CCVCLCACRLFCSIVADYRR | inactive
112 | CCWRNLYSFLRKGSYSRCM | inactive
113 | CDAWILFFWHVVNISYRVDK | inactive
114 | CDFALCSRWQVVYVKKQGQW | 2.1 ± 0.07
115 | CDIPFF | inactive

Row | Substance | amyloid nucleation score
116 | CDSWAYCRGCFRFML | -0.092 ± 1.1
117 | CDTSFKIDELPYSASLHFAF | inactive
118 | CDVCNM | inactive
119 | CDVHTGRCDSCYTGNSTKFG | inactive
120 | CDVLYRILRYIYSGKLLFSE | inactive
121 | CDVPAKYLGKICDSYALSIF | inactive
122 | CECVGFRSRYM | 0.038 ± 0.3
123 | CEGMKCYVVLTRLRLKKTRT | inactive
124 | CEISLV | 0.767 ± 0.16
125 | CELLCFTGLSDYNTGSGVRR | inactive
126 | CEMVCSTVIPIEVTSWLVMV | inactive
127 | CEVHEGWIA | inactive
128 | CFANSSYLIGTCLRCACNDR | 2.37 ± 0.072
129 | CFFIVGLARIFGLVPVA | 0.804 ± 0.12
130 | CFIVQWMLTLMCVFANCILT | inactive
131 | CFKPILDLGSKCLFVLVVGK | inactive
132 | CFLCFTPHSFHVCSI | inactive
133 | CFRLPCVQESVPDKVLLTGS | inactive
134 | CFTVVPGSVMF | inactive
135 | CFVAGYRSIGLLRFITIFCV | inactive
136 | CFVGHADLKFMGFHWMVGEC | inactive
137 | CFYEGYWREITNMAFLILRP | inactive
138 | CGAQALAQWYLYLLSHAIQY | inactive

Row | Substance | amyloid nucleation score
139 | CGLRIRWSNVLYSRRTCGFT | inactive
140 | CGMRNLR | inactive
141 | CGSWAYRY | 0.435 ± 0.19
142 | CGVSLDRWSNMQ | inactive
143 | CGWMTHSEL | inactive
144 | CGYCVFPFLNGITVGGRFGH | 1.29 ± 0.11
145 | CHASRSGIKLLLSIAAWTCI | inactive
146 | CHHYHMWLRFGSVEWIRGMD | -0.052 ± 0.38
147 | CHLYLPSQTSQH | inactive
148 | CICLVDPERLKDKTI | inactive
149 | CIEWHAQGDFFLMICLYCPD | inactive
150 | CIFFRVGSFLNYFYASAWHS | inactive
151 | CIKTCSCLSLPGLRFSPAIS | inactive
152 | CIMALGSNVLFRLEN | 1.51 ± 0.091
153 | CIMFVFILLQYAFYIYILLV | inactive
154 | CIPLLFWVWSSNVCVRLKLQ | inactive
155 | CIRIYATFFKLRQSYNGTNG | 1.03 ± 0.14
156 | CISQVVVGSTHTAIGARAFA | inactive
157 | CISSGGMLLNSFGSLWA | inactive
158 | CIVAANHRRCNFLRLGRRLG | -0.654 ± 1.5
159 | CIVLLLTPSLGDWYTEDDFL | inactive
